Series [1] deals with the molecule itself. In words: negative-stain EM; P pilus rods assembled in vitro from 50 µM PapA-PapDhis complex, 20 mM Tris-HCl pH 8.0, 50 mM NaCl, 37 °C, 7 days.
Series [2] deals with the molecule itself. In words: cryo-EM structure; in vitro-assembled type 1 pilus rods, helical reconstruction, 2.69 Å; sample diluted to 100 µM in ddH2O.
In series [3] the target is T1, FimC, periplasmic chaperone of type 1 pili (Escherichia coli, UniProt P31697 37-241).
T1 construct: FimC, periplasmic chaperone of type 1 pili, Escherichia coli; source: E. coli BL21(DE3) with pFimC-cyt, purified (SP-Sepharose, Superdex 75 SEC)
T1 sequence: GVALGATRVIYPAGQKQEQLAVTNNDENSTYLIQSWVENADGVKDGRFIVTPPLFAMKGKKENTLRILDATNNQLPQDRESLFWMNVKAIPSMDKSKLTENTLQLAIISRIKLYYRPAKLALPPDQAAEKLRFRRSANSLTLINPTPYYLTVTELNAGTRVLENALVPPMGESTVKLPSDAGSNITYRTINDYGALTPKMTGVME
In words: SEC; complex formed by rapid dilution of unfolded, disulfide-intact FimA into FimC (15 min, 23 °C), then Sephadex G25, Source 30S cation exchange and Superdex 75 in 20 mM Tris-HCl pH 8.0, 50 mM NaCl. As to conditions: both partners purified.

For the next series, the target named is T2, FimChis (Escherichia coli, UniProt P31697 37-241).
T2 construct: FimC, periplasmic chaperone of type 1 pili, Escherichia coli; source: E. coli BL21(DE3) with pFimChis-cyt, purified (SP-Sepharose, Superdex 75 SEC)
T2 sequence (looked up): T1 sequence
The series is described as above. As to conditions: both partners purified.

The record followed here is publication PMC11001860, “The assembly platform FimD is required to obtain the most stable quaternary structure of type 1 pili” (Nature Communications, 2024).

B1: PapA, main structural subunit of the P pilus rod (co-expressed with PapDhis) (natural protein)
chain: APTIPQGQGKVTFNGTVVDAPCSISQKSADQSIDFGQLSKSFLEAGGVSKPMDLDIELVNCDITAFKGGNGAKKGTVKLAFTGPIVNGHSDELDTNGGTGTAIVVQGAGKNVVFDGSEGDANTLKDGENVLHYTAVVKKSSAVGAAVTEGAFSAVANFNLTYQ
notes: PapA, main structural subunit of the P pilus rod, Escherichia coli; also called in vitro-assembled P pili; source: E. coli HM125 with PapDA (pTRC99a), periplasmic extract; purified as a complex with PapDhis (HisTrap, Source 30S, SEC)
As for B1, in series [1], the binding result was “binds”.

B2: FimA, main structural subunit of the type 1 pilus rod (recombinant, assembled in vitro) (natural protein)
chain: AATTVNGGTVHFKGEVVNAACAVDAGSVDQTVQLGQVRTASLAQEGATSSAVGFNIQLNDCDTNVASKAAVAFLGTAIDAGHTNVLALQSSAAGSATNVGVQILDRTGAALTLDGATFSSETTLNNGTNTIPFQARYFATGAATPGAANADATFKVQYQ
notes: FimA, main structural subunit of the type 1 pilus rod of Escherichia coli; printed residue numbers run to Q159; The same FimA was used for rods assembled from FimA monomers, from FimA-FimC complexes and with FimD (FimD-cat); also called FimA monomers; self-complemented FimA
In the case of B2, the binding result (in series [2]; in series [3]; with FimChis) was “binds” throughout.
